Measured values as given in the supplement of paper PMC10567573.

B1: RHOBTB3 (parent)
chain: GGADIIVIKYNVNDKFSFHEVKDN
B2: INTS4 (parent)
chain: AKQIMEETYKMEFMYSGVENKQVV
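Also: lentivirally expressed fusions sorted by FACS into six bins by GFP to DsRed ratio, PSI derived from sequencing read proportions per bin multiplied by bin number.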

Variants of: B1
Test: protein stability index of a GFP-peptide fusion (GPS, HEK-293T) (PSI 1-6); higher = more stable
Settings: c terminus: a fixed tail appended
GIADIIVIKYNVNDKFSFHEVKDN [G2I] showed a protein stability index of 1.52. With GEADIIVIKYNVNDKFSFHEVKDN [G2E] the protein stability index was 1.98. Work on GMADIIVIKYNVNDKFSFHEVKDN [G2M] yielded a protein stability index of 3.43. For GPADIIVIKYNVNDKFSFHEVKDN [G2P], the protein stability index was 1.52. With GHADIIVIKYNVNDKFSFHEVKDN [G2H] the protein stability index was 3.5. With GQADIIVIKYNVNDKFSFHEVKDN [G2Q] the protein stability index was 1.86. With GSADIIVIKYNVNDKFSFHEVKDN [G2S] the protein stability index was 1.62. In the case of GVADIIVIKYNVNDKFSFHEVKDN [G2V], the protein stability index is reported as 1.64. With GKADIIVIKYNVNDKFSFHEVKDN [G2K] the protein stability index was 2.86. Variant GGDDIIVIKYNVNDKFSFHEVKDN [A3D] has a protein stability index of 2.85. For GGFDIIVIKYNVNDKFSFHEVKDN [A3F], the protein stability index was 3.37. Variant GGIDIIVIKYNVNDKFSFHEVKDN [A3I] has a protein stability index of 3.1. In the case of GGMDIIVIKYNVNDKFSFHEVKDN [A3M], the protein stability index is reported as 2.03. Variant GGQDIIVIKYNVNDKFSFHEVKDN [A3Q] has a protein stability index of 2.73. With GGLDIIVIKYNVNDKFSFHEVKDN [A3L] the protein stability index was 2.64. Work on GGSDIIVIKYNVNDKFSFHEVKDN [A3S] yielded a protein stability index of 1.74. GGEDIIVIKYNVNDKFSFHEVKDN [A3E] gave a protein stability index of 1.74. For GGHDIIVIKYNVNDKFSFHEVKDN [A3H], the protein stability index was 3.04. In the case of GGWDIIVIKYNVNDKFSFHEVKDN [A3W], the protein stability index is reported as 2.05. With GGTDIIVIKYNVNDKFSFHEVKDN [A3T] the protein stability index was 2.21. For GGYDIIVIKYNVNDKFSFHEVKDN [A3Y], the protein stability index was 2.96. Variant GGPDIIVIKYNVNDKFSFHEVKDN [A3P] has a protein stability index of 2.35. For GGKDIIVIKYNVNDKFSFHEVKDN [A3K], the protein stability index was 2.65. For WGADIIVIKYNVNDKFSFHEVKDN [G1W], the protein stability index was 1.54. With NGADIIVIKYNVNDKFSFHEVKDN [G1N] the protein stability index was 2.96. With TGADIIVIKYNVNDKFSFHEVKDN [G1T] the protein stability index was 2.99. In the case of KGADIIVIKYNVNDKFSFHEVKDN [G1K], the protein stability index is reported as 2.99. IGADIIVIKYNVNDKFSFHEVKDN [G1I] gave a protein stability index of 2.53. EGADIIVIKYNVNDKFSFHEVKDN [G1E] showed a protein stability index of 2.13. In the case of FGADIIVIKYNVNDKFSFHEVKDN [G1F], the protein stability index is reported as 2.69. With DGADIIVIKYNVNDKFSFHEVKDN [G1D] the protein stability index was 2.67. With YGADIIVIKYNVNDKFSFHEVKDN [G1Y] the protein stability index was 2.04. HGADIIVIKYNVNDKFSFHEVKDN [G1H] gave a protein stability index of 2.3. Work on LGADIIVIKYNVNDKFSFHEVKDN [G1L] yielded a protein stability index of 2.44. MGADIIVIKYNVNDKFSFHEVKDN [G1M] gave a protein stability index of 1.97. Work on RGADIIVIKYNVNDKFSFHEVKDN [G1R] yielded a protein stability index of 3.04. VGADIIVIKYNVNDKFSFHEVKDN [G1V] gave a protein stability index of 2.1. For QGADIIVIKYNVNDKFSFHEVKDN [G1Q], the protein stability index was 2.37. Work on AGADIIVIKYNVNDKFSFHEVKDN [G1A] yielded a protein stability index of 2.07. Work on SGADIIVIKYNVNDKFSFHEVKDN [G1S] yielded a protein stability index of 3.49. For CGADIIVIKYNVNDKFSFHEVKDN [G1C], the protein stability index was 2.27. In the case of PGADIIVIKYNVNDKFSFHEVKDN [G1P], the protein stability index is reported as 2.18.

Variants of: B2
Test: as above
Settings: c terminus: a fixed tail appended
Variant AKQIMEETYKMEFMYSGVENKQCV [V23C] has a protein stability index of 1.6. In the case of AKQIMEETYKMEFMYSGVENKQKV [V23K], the protein stability index is reported as 1.71. Variant AKQIMEETYKMEFMYSGVENKQGV [V23G] has a protein stability index of 1.32. In the case of AKQIMEETYKMEFMYSGVENKQNV [V23N], the protein stability index is reported as 2.18. AKQIMEETYKMEFMYSGVENKQMV [V23M] showed a protein stability index of 3.75. For AKQIMEETYKMEFMYSGVENKQHV [V23H], the protein stability index was 1.88. In the case of AKQIMEETYKMEFMYSGVENKQIV [V23I], the protein stability index is reported as 2.2. AKQIMEETYKMEFMYSGVENKQTV [V23T] gave a protein stability index of 1.46. Work on AKQIMEETYKMEFMYSGVENKQEV [V23E] yielded a protein stability index of 1.97. Work on AKQIMEETYKMEFMYSGVENKQFV [V23F] yielded a protein stability index of 1.16. Variant AKQIMEETYKMEFMYSGVENKQSV [V23S] has a protein stability index of 1.76. For AKQIMEETYKMEFMYSGVENKQPV [V23P], the protein stability index was 1.42. AKQIMEETYKMEFMYSGVENKQRV [V23R] showed a protein stability index of 1.95. For AKQIMEETYKMEFMYSGVENKQAV [V23A], the protein stability index was 1.8. AKQIMEETYKMEFMYSGVENKQDV [V23D] gave a protein stability index of 1.68. Work on AKQIMEETYKMEFMYSGVENKHVV [Q22H] yielded a protein stability index of 1.98. Work on AKQIMEETYKMEFMYSGVENKKVV [Q22K] yielded a protein stability index of 1.47. For AKQIMEETYKMEFMYSGVENKWVV [Q22W], the protein stability index was 1.02. With AKQIMEETYKMEFMYSGVENKNVV [Q22N] the protein stability index was 1.31. In the case of AKQIMEETYKMEFMYSGVENKEVV [Q22E], the protein stability index is reported as 1.48. AKQIMEETYKMEFMYSGVENKCVV [Q22C] showed a protein stability index of 2.97. Work on AKQIMEETYKMEFMYSGVENCQVV [K21C] yielded a protein stability index of 1.92. For AKQIMEETYKMEFMYSGVENHQVV [K21H], the protein stability index was 1.75. AKQIMEETYKMEFMYSGVENNQVV [K21N] showed a protein stability index of 2.25. AKQIMEETYKMEFMYSGVENGQVV [K21G] gave a protein stability index of 2.5. Work on AKQIMEETYKMEFMYSGVENPQVV [K21P] yielded a protein stability index of 2.99. AKQIMEETYKMEFMYSGVENMQVV [K21M] gave a protein stability index of 2.07. Work on AKQIMEETYKMEFMYSGVENFQVV [K21F] yielded a protein stability index of 3.8. AKQIMEETYKMEFMYSGVENSQVV [K21S] gave a protein stability index of 2.51. With AKQIMEETYKMEFMYSGVENKQVH [V24H] the protein stability index was 1.65. AKQIMEETYKMEFMYSGVENKQVA [V24A] gave a protein stability index of 1.75. AKQIMEETYKMEFMYSGVENKQVQ [V24Q] showed a protein stability index of 1.89. With AKQIMEETYKMEFMYSGVENKQVL [V24L] the protein stability index was 1.73. In the case of AKQIMEETYKMEFMYSGVENKQVD [V24D], the protein stability index is reported as 2.56. Variant AKQIMEETYKMEFMYSGVENKQVN [V24N] has a protein stability index of 2.44. AKQIMEETYKMEFMYSGVENKQVI [V24I] showed a protein stability index of 1.51. For AKQIMEETYKMEFMYSGVENKQVP [V24P], the protein stability index was 2.54. For AKQIMEETYKMEFMYSGVENKQVY [V24Y], the protein stability index was 2.01. For AKQIMEETYKMEFMYSGVENKQVE [V24E], the protein stability index was 1.78. Work on AKQIMEETYKMEFMYSGVENKQVT [V24T] yielded a protein stability index of 1.72. AKQIMEETYKMEFMYSGVENKQVW [V24W] gave a protein stability index of 2.33. Work on AKQIMEETYKMEFMYSGVENKQVK [V24K] yielded a protein stability index of 1.98. In the case of AKQIMEETYKMEFMYSGVEQKQVV [N20Q], the protein stability index is reported as 2.84. AKQIMEETYKMEFMYSGVESKQVV [N20S] showed a protein stability index of 1.44. With AKQIMEETYKMEFMYSGVETKQVV [N20T] the protein stability index was 1.36. AKQIMEETYKMEFMYSGVELKQVV [N20L] gave a protein stability index of 1.29. For AKQIMEETYKMEFMYSGVEPKQVV [N20P], the protein stability index was 1.72. In the case of AKQIMEETYKMEFMYSGVEVKQVV [N20V], the protein stability index is reported as 1.17. With AKQIMEETYKMEFMYSGVEHKQVV [N20H] the protein stability index was 1.59. AKQIMEETYKMEFMYSGVEYKQVV [N20Y] showed a protein stability index of 1.73. Work on AKQIMEETYKMEFMYSGVEWKQVV [N20W] yielded a protein stability index of 3.06. In the case of AKQIMEETYKMEFMYSGVEKKQVV [N20K], the protein stability index is reported as 1.46.
